Patent US20210316003A1 (Immunomedics, Inc., priority 2020, published 2021)
Values joined by “and” are separate entries in the source; they are usually repeats but may differ in a detail not shown here. Identical values can stand only once.

Assays:
[1] = system: patients with metastatic urothelial cancer (mUC); test: Phase I/II trial IMMU-132-01 (NCT01631552), mUC cohort: efficacy by RECIST 1.1; assay type: in vivo, human; conditions: for ORR (objective response rate): 10 mg/kg days 1 and 8 of 21-day cycles
Method: Endpoints included safety, investigator-evaluated objective response rate (ORR per RECIST 1.1), clinical benefit rate, duration of response (DOR), progression-free survival (PFS), and overall survival (OS). Sequencing analysis of differentially mutated and expressed genes and pathways was performed in subsets of tumors from responders and non-responders.
All patients had metastatic disease measurable by Response Evaluation Criteria in Solid Tumors, version 1.1 (RECIST 1.1) at the time of enrollment. Patients were required to have an Eastern Cooperative Oncology Group (ECOG) performance status of 0 to 1 with expected survival ≥6 months and adequate hepatic, renal, and hematologic function. […] Patients with stable brain metastases could be included only if they were ≥2 weeks beyond high-dose steroid treatment. Pre-selection of patients based on tumor Trop-2 expression was not required.
Hematopoietic growth factors or blood transfusions were allowed at the investigator's discretion, but not prior to the first dose. Other supportive care (antiemetics, anti-diarrheal medications, or bone-stabilizing agents) were allowed as medically needed.
Staging CT/magnetic resonance imaging (MRI) scans were obtained at baseline and at 8-week intervals from the start of treatment until progression requiring treatment discontinuation. […] Subsequent scans were done at 8-week intervals after the confirmatory scan. Patients with evidence of clinical benefit were permitted to receive treatment following disease progression. Response was assessed by investigators using RECIST, version 1.1. Efficacy endpoints included objective response rate (ORR), time to response, duration of response (DOR), clinical benefit rate (CBR; defined as CR, PR, or stable disease ≥6 months), progression-free survival (PFS), and overall survival (OS).
The data cut-off date for this analysis was Sep. 1, 2018. ORR and CBR were calculated with 95% confidence intervals estimated by the Clopper-Pearson method (Clopper & Pearson, 1934, Biometrika 26:404-13). PFS, OS, and time-to-event endpoints were analyzed by the Kaplan-Meier method, with medians and corresponding 95% confidence intervals determined by the Brookmeyer and Crowley method with log-log transformation. Descriptive statistics were used to characterize AEs. Fischer's exact test was applied to a matrix of pathway-associated gene counts of mutated and wild type phenotypes between responders and non-responders to identify pathways enriched in either of the two response groups. P-values for single sample GSEA (ssGSEA) enrichment score differences between the responder and non-responder patient groups were obtained from the Mann-Whitney statistical test.

[2] = system: patients with diverse metastatic cancers; test: Phase I trial and phase II extension in diverse epithelial cancers: related adverse events (CTCAE v 4.0); assay type: in vivo, human
[3] = system: patients with mSCLC; conditions: in vivo
Method: Doses of 8 or 10 mg/kg were given on days 1 and 8 of a 21-day cycle, with contingencies to delay (maximum of 2 weeks). Toxicities were managed by supportive hematopoietic growth-factor therapy for blood cell reduction, dose delays and/or modification as specified in the protocol (e.g., 25% of prior dose), or by standard medical practice. Treatment was continued until disease progression, initiation of alternative anticancer therapy, unacceptable toxicity, or withdrawal of consent.
Safety evaluations were conducted during scheduled visits or more frequently if warranted.
Statistical Analyses—The data included in the analyses were derived from patients enrolled from November 2013 to June 2016, with follow-up through Jan. […] The frequency and severity of adverse events (AEs) were defined by MedDRA Preferred Term and System Organ Class (SOC) version 10, with severity assessed by NCI-CTCAE v4.03.

[4] = system: patients with diverse metastatic cancers; conditions: human, in vivo
Excerpt: In the Phase I and the expansion phases, there are now 48 pts (excluding PDC) who are assessable by RECIST/CT for best response.

[5] = system: patients with metastatic TNBC; conditions: second line or later (Bardia et al., 2019); cited from earlier work
[6] = system: patients with non-small cell lung cancer (NSCLC); conditions: cited from earlier work
[7] = 10 mg/kg, N = 45, listed as Sacituzumab Govitecan

With sacituzumab govitecan the “ORR (objective response rate)” value ([1]; N = 45, 10 mg/kg) was 31% and 31.1%, the “ORR (objective response rate)” value ([1]; N = 45, listed as Sacituzumab Govitecan, 10 mg/kg) was 31.1% and the “ORR, prior CPI- and platinum-treated patients” value ([1]; 10 mg/kg, 4 of 15, 10 mg/kg) was 27% and 26.7%. The “ORR, prior CPI-treated patients” value ([1]; 10 mg/kg, 4 of 17, 10 mg/kg) was 24% and 23.5%, the “ORR, patients with liver metastases” value ([1]; 10 mg/kg, 5 of 15, 10 mg/kg) was 33% and 33.3% and the “ORR, patients with any visceral involvement” value ([1]; 10 mg/kg, 9 of 33) was 27.3%. For the same substance, the “Clinical benefit rate, No. of patients” value ([1]; 10 mg/kg, N = 45) was 21, the “Median OS” value ([1]; 10 mg/kg, N = 45) was 16.3 months and the “Median PFS” value ([1]; 10 mg/kg, N = 45) was 7.3 months. The “ORR, No. of patients” value ([1]; 10 mg/kg, N = 45) was 14, the “CR, % of patients” value ([1]; 10 mg/kg, N = 45, 10 mg/kg) was “(4.4) %” and the “PD, % of patients” value ([1]; 10 mg/kg, N = 45, 10 mg/kg) was “(22.2) %”. For the same substance, the “PR, % of patients” value ([1]; 10 mg/kg, N = 45, 10 mg/kg) was “(26.7) %”, the “CR, % of patients” value [1, 7] was 4.4% and the “PD, % of patients” value [1, 7] was 22.2%. For the same substance, the “PR, % of patients” value [1, 7] was 26.7%, the “Median DOR (duration of response)” value ([1]; 10 mg/kg, responders n = 14) was 12.9 months and the “Time to onset of response, median” value ([1]; 10 mg/kg, responders n = 14) was 1.9 months. For the same substance, the “Time to onset of response, range” value ([1]; 10 mg/kg, responders n = 14) was 1.7-7.4 months, the “Ongoing response of patients still on treatment at time of analysis” value ([1]; 3 patients, FIG. 1B) was > 17 months and > 19 months and > 29 months and the “Responders with response duration of more than 12 months” value ([1]; 7 of 14 responders) was 50%. For the same substance, the “Patients with a reduction of target lesions” value ([1]; 31 of 40 patients with post-baseline assessment) was 77.5%, the “Diarrhea ≥G3” value ([2]; 49 pts reporting related AE) was 9% and the “Fatigue ≥G3” value ([2]; 49 pts reporting related AE) was 9%. The “Nausea ≥G3” value ([2]; 49 pts reporting related AE) was 0%, the “Neutropenia ≥G3” value ([2]; 49 pts reporting related AE) was 28% and the “Vomiting ≥G3” value ([2]; 49 pts reporting related AE) was 2%. The “Abdominal pain, Grade 3, patients” value ([2]; related AE, N = 47) was 0, the “Abdominal pain, Grade 4, patients” value ([2]; related AE, N = 47) was 0 and the “Abdominal pain, TOTAL” value ([2]; related AE, N = 47) was 11%. For the same substance, the “Alopecia, TOTAL” value ([2]; related AE, N = 47) was 40%, the “Anemia, Grade 3, %” value ([2]; related AE, N = 47) was “(4%)” and the “Anemia, Grade 3, patients” value ([2]; related AE, N = 47) was 2. The “Anemia, Grade 4, patients” value ([2]; related AE, N = 47) was 0, the “Anemia, TOTAL” value ([2]; related AE, N = 47) was 13% and the “Deep vein thrombosis, Grade 3, %” value ([2]; related AE, N = 47) was “(2%)”. For the same substance, the “Deep vein thrombosis, Grade 3, patients” value ([2]; related AE, N = 47) was 1, the “Deep vein thrombosis, Grade 4, patients” value ([2]; related AE, N = 47) was 0 and the “Deep vein thrombosis, TOTAL” value ([2]; related AE, N = 47) was 2%. The “Diarrhea, Grade 3, %” value ([2]; related AE, N = 47) was “(9%)”, the “Diarrhea, Grade 3, patients” value ([2]; related AE, N = 47) was 4 and the “Diarrhea, Grade 4, patients” value ([2]; related AE, N = 47) was 0. For the same substance, the “Diarrhea, TOTAL” value ([2]; related AE, N = 47) was 47%, the “Dysgeusia, Grade 3, patients” value ([2]; related AE, N = 47) was 0 and the “Dysgeusia, Grade 4, patients” value ([2]; related AE, N = 47) was 0. For the same substance, the “Dysgeusia, TOTAL” value ([2]; related AE, N = 47) was 15%, the “Fatigue, Grade 3, %” value ([2]; related AE, N = 47) was “(9%)” and the “Fatigue, Grade 3, patients” value ([2]; related AE, N = 47) was 4. For the same substance, the “Fatigue, Grade 4, patients” value ([2]; related AE, N = 47) was 0, the “Fatigue, TOTAL” value ([2]; related AE, N = 47) was 55% and the “Febrile Neutropenia, Grade 3, %” value ([2]; related AE, N = 47) was “(2%)”. For the same substance, the “Febrile Neutropenia, Grade 3, patients” value ([2]; related AE, N = 47) was 1, the “Febrile Neutropenia, Grade 4, %” value ([2]; related AE, N = 47) was 4% and the “Febrile Neutropenia, Grade 4, patients” value ([2]; related AE, N = 47) was 2. The “Febrile Neutropenia, TOTAL” value ([2]; related AE, N = 47) was 6%, the “Hypokalemia, Grade 3, %” value ([2]; related AE, N = 47) was “(2%)” and the “Hypokalemia, Grade 3, patients” value ([2]; related AE, N = 47) was 1. The “Hypokalemia, Grade 4, patients” value ([2]; related AE, N = 47) was 0, the “Hypokalemia, TOTAL” value ([2]; related AE, N = 47) was 11% and the “Nausea, Grade 3, patients” value ([2]; related AE, N = 47) was 0. For the same substance, the “Nausea, Grade 4, patients” value ([2]; related AE, N = 47) was 0, the “Nausea, TOTAL” value ([2]; related AE, N = 47) was 53% and the “Neutropenia, Grade 3, %” value ([2]; related AE, N = 47) was “(24%)”. The “Neutropenia, Grade 3, patients” value ([2]; related AE, N = 47) was 11, the “Neutropenia, Grade 4, %” value ([2]; related AE, N = 47) was 4% and the “Neutropenia, Grade 4, patients” value ([2]; related AE, N = 47) was 2. For the same substance, the “Neutropenia, TOTAL” value ([2]; related AE, N = 47) was 43%, the “Pyrexia, Grade 3, patients” value ([2]; related AE, N = 47) was 0 and the “Pyrexia, Grade 4, patients” value ([2]; related AE, N = 47) was 0. The “Pyrexia, TOTAL” value ([2]; related AE, N = 47) was 13%, the “Vomiting, Grade 3, %” value ([2]; related AE, N = 47) was “(2%)” and the “Vomiting, Grade 3, patients” value ([2]; related AE, N = 47) was 1. For the same substance, the “Vomiting, Grade 4, patients” value ([2]; related AE, N = 47) was 0, the “Vomiting, TOTAL” value ([2]; related AE, N = 47) was 32% and the “WBC Decrease, Grade 3, %” value ([2]; related AE, N = 47) was “(2%)”. The “WBC Decrease, Grade 3, patients” value ([2]; related AE, N = 47) was 1, the “WBC Decrease, Grade 4, patients” value ([2]; related AE, N = 47) was 0 and the “WBC Decrease, TOTAL” value ([2]; related AE, N = 47) was 6%. The “Anemia, grade 3 or 4” value [3] was 8%, the “Diarrhea, grade 3 or 4” value [3] was 9% and the “Fatigue, grade 3 or 4” value [3] was 13%. The “Hyponatremia, grade 3 or 4” value [3] was 8%, the “Increased alkaline phosphatase, grade 3 or 4” value [3] was 8% and the Infusion-related reactions [3] was “No infusion-related reactions were reported”. For the same substance, the “Neutropenia, grade 3 or 4” value [3] was 34%, the “Patients with dose reduction” value ([3]; 8 mg/kg) was 13% and the “Anti-hRS7 or anti-SN-38 antibodies” value [4] was “No anti-hRS7 or anti-SN-38 antibodies were detected”. The “Median progression-free survival (PFS)” value [5] was 5.5 months, the “Overall survival (OS)” value [5] was 13.0 months and the Response rate [5] was 33.3%. The ORR ([6]; 47 response assessable patients, median of three prior therapies) was 19%, the Clinical benefit rate ([6]; 47 response assessable patients) was 43% and the “Median OS” value [6] was 9.5 months. The “Median PFS” value [6] was 5.2 months.
